Reference: patent US20240166737A1 (Janssen / Centocor, published 2024)

Legend:
[1] = biological target: T1, CD3 epsilon on human T-cells (human, UniProt P07766 23-207); test: cell-based or functional assay
[2] = biological target: T1, CD3 epsilon on human T-cells; test: T-cell binding assay, FIG. 15
[3] = biological target: T1, CD3 epsilon on human T-cells; test: cell-based or functional assay; remark: listed apart in the source
[4] = biological target: T2, human MSLN on the cell surface (human, UniProt Q13421 296-598); test: flow cytometry (MFI PE) on OVCAR-8 cells
T2 construct: on cells stands the processed GPI-anchored 40 kDa MSLN; also called membrane MSLN; MSLN on H838, OVCAR-8 (OVCAR8), OVCAR-8 K1/C8, SK-OV-3 cells

[5] = biological target: T3, MSLN with Met593Val on cells homozygous for SNP rs1135210 (SNP G|G) (human, UniProt Q13421 296-598); test: binding to homozygous SNP-positive cells
T3 construct: also called homozygous SNP-positive cells; BxPC3, NCI-H322

[6] = biological target: T4, MSNW11, recombinant soluble (shed) MSLN lacking the C-terminal 7 AAs (human, UniProt Q13421 296-591); test: H838 cell binding with shed MSLN (MSNW11) added
T4 construct: domain: soluble MSLN lacking the C-terminal 7 AAs; also called MSNW11.002; soluble MSLN
Text: (§1) Table 16 lists the immunization campaigns, antigens used, and number of clones returned at each stage of screening. Clones from which antibody sequences were successfully recovered were first screened for binding to recombinant full length human MSLN (MSNW10) and H838 cells that express MSLN on the cell surface. Binders were further screened for binding to cells in the presence of recombinant soluble MSLN lacking the C-terminal 7 AAs (MSNW11). This form of recombinant MSLN represented the product of cleavage at the closest cleavage site to the C-terminus known at the time, therefore, it theoretically represented the longest form of shed MSLN. The final concentration of shed MSLN in the assays was 100 nM.

[7] = biological target: T5, 12 AA stub region peptide LVLDLSMQEALS (human); test: SPR
T5 construct: free N-terminus; also called 12 AA Peptide
T5 peptide: LVLDLSMQEALS

[8] = biological target: T6, 8 AA stub (a.a. 296-303 of SEQ ID NO: 247) (human); test: competition of OVCAR8 cell binding by the peptide
T6 construct: also called 8 AA Peptide; peptide of the last 8 C-terminal amino acids
T6 peptide: LSMQEALS

[9] = biological target: T2, human MSLN on the cell surface; test: binding to H838 cells with and without 100 nM recombinant shed MSLN (MSNW11); the two curves lie on each other
Text: as §1

[10] = biological target: T2, human MSLN on the cell surface; test: high content imaging, surface staining of OVCAR8 cells
Procedure: OVCAR8 cells were cultured in RPMI 1640 medium supplemented with 10% FCS, 1% L-glutamine and 1% Gentamycin and seeded in Greiner CELLSTAR plate one day before experiment. 24 h after seeding, antibody mixture was prepared by diluting MSLN and control antibodies in Table 21 in full media containing CellMask™ Deep Red Plasma Membrane Stain (ThermoFisher, C10046) in 12 concentrations each with 3 folds dilution starting from 20 μg/ml and 20 μl of which were added directly to the cells in 20 μl. Antibodies were allowed for binding to the cell surface for 2h inside the incubator (37°) C. and the surface bound antibodies were fixed for 15 min at RT by directly adding 30 ul of 10% Formaldehyde (04018-1, Polysciences). Afterwards residual Formaldehyde was removed by washing the cells twice with PBS and the primary antibodies were stained with secondary antibodies (Alexa Fluor 488 goat anti-human IgG, Invitrogen, A11013) complemented with Hoechst 33342 (H3570, ThermoFisher) and HCS CellMask™ Deep Red Stain (ThermoFisher, H32721) in PBS for 1h at RT. After removing unbound antibodies and other dyes by washing the cells 3 times with PBS cells were imaged on the CellVoyager 7000 (Yokogawa, Tokyo, Japan) using a 40×/0.95 objective. Of each well, 9 fields were imaged. Image analysis was performed with Acapella (PerkinElmer, Waltham, MA, USA) and the results stored in Phaedra (OpenAnalytics, Antwerp, Belgium). Data analysis was done in R (www.r-project.org).
The data was then fitted using the four-parameter logistic using least-squares regression, keeping the lower boundary fixed at 0.

[11] = biological target: T7, 13 AA stub (a.a. 291-303 of SEQ ID NO: 247) (human); test: SPR, mAb captured, peptide injected
T7 peptide: YLVLDLSMQEALS
Procedure: (§2) The binding was assessed by SPR. Briefly, GAH-Fc was used to capture mAbs on C4 sensor chip followed by antigen injection starting at 30 nM (14 amino acid stub), 100 nM (10-13 amino acid stubs), or 1000 nM (7-9 amino acid stubs) progressing in a 3-fold dilution series in single cycle kinetics mode. HBSP+0.01% BSA was used in the assay.

[12] = biological target: T8, 9 AA stub (a.a. 295-303 of SEQ ID NO: 247) (human); test: SPR, mAb captured, peptide injected
T8 peptide: DLSMQEALS
Procedure: as §2

[13] = biological target: T9, 14 AA stub (a.a. 290-303 of SEQ ID NO: 247) (human); test: SPR, mAb captured, peptide injected
T9 peptide: GYLVLDLSMQEALS
Procedure: as §2

[14] = biological target: T10, 11 AA stub (a.a. 293-303 of SEQ ID NO: 247) (human); test: SPR, mAb captured, peptide injected
T10 peptide: VLDLSMQEALS
Procedure: as §2

[15] = biological target: T11, 10 AA stub (a.a. 294-303 of SEQ ID NO: 247) (human); test: SPR, mAb captured, peptide injected
T11 peptide: LDLSMQEALS
Procedure: as §2

[16] = biological target: T12, 7 AA stub (a.a. 297-303 of SEQ ID NO: 247) (human); test: SPR, mAb captured, peptide injected
T12 peptide: SMQEALS
Procedure: as §2

[17] = biological target: T13, MSNW10, recombinant full length human MSLN (human, UniProt Q13421 296-598); test: SPR, recombinant full-length human MSLN
T13 construct: also called MSNW10.002; FL-MSLN

[18] = biological target: human MSLN on the cell surface (human, UniProt Q13421 296-598); test: flow cytometry (MFI PE) on OVCAR-8 cells
[19] = biological target: T13, MSNW10, recombinant full length human …; test: SPR, additional experiments
[20] = biological target: T6, 8 AA stub (a.a. 296-303 of SEQ ID NO: …); test: SPR, mAb captured, peptide injected
Procedure: as §2

[21] = biological target: T5, 12 AA stub region peptide LVLDLSMQEALS; test: SPR, mAb captured, peptide injected
Procedure: as §2

[22] = biological target: T1, CD3 epsilon on human T-cells; test: T cell binding
recombinant CD3 = biological target: T14, recombinant CD3 (UniProt P07766 23-126); test: SPR
T14 construct: also called CD3 (SPR)
T14 sequence (P07766 23-126): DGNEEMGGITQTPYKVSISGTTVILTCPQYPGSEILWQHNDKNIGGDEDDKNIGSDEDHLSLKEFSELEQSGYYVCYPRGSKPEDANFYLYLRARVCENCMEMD

T1 sequence (P07766 23-207 limits assumed): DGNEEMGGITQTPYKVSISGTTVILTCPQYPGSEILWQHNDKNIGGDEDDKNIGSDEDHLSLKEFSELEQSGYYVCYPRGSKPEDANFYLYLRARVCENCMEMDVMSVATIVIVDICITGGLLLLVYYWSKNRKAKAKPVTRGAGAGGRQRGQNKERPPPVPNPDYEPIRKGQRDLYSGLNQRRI
T4 sequence (Q13421 other isoform, or with tags, fused parts or gaps limits assumed): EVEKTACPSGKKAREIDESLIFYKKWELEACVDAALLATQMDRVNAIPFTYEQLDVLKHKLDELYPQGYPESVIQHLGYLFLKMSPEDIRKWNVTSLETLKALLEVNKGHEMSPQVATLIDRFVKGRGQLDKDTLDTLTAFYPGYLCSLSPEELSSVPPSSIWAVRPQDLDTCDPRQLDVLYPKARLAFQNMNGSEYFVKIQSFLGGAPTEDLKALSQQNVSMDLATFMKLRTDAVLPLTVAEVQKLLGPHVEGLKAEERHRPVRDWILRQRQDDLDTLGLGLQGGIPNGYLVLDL
T13 sequence (Q13421 other isoform, or with tags, fused parts or gaps limits assumed): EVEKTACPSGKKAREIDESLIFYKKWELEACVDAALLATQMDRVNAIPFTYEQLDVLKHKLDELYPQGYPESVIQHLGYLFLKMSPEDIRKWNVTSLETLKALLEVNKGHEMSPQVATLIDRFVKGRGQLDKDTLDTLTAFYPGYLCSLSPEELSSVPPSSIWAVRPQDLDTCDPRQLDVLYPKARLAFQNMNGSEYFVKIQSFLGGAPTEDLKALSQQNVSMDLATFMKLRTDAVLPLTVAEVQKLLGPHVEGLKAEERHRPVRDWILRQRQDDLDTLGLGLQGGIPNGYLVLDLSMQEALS
T3 sequence (Q13421 other isoform, or with tags, fused parts or gaps M593V M593V limits assumed): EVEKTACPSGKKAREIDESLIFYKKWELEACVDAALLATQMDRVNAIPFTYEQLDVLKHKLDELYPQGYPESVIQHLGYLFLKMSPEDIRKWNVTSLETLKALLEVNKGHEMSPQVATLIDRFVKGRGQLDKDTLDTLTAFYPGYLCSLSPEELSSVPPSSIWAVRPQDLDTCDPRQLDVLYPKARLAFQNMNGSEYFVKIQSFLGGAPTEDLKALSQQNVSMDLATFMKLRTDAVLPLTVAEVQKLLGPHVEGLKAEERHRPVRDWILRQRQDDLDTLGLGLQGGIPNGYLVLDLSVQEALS

B1: MNC3B55 (bispecific antibody)
scFv: EVQLVESGGGLVKPGGSLRLSCAASGFTFSRYNMNWVRQAPGKGLEWVSSISTSSNYIYYADSVKGRFTFSRDNAKNSLDLQMSGLRAEDTAIYYCTRGWGPFDYWGQGTLVTVSSGGSEGKSSGSGSESKSTGGSDIQMTQSPSSLSASVGDRVTITCRARQSIGTAIHWYQQKPGKAPKLLIKYASESISGVPSRFSGSGSGTDFTLTISSLQPEDFATYYCQQSGSWPYTFGQGTKLEIK
VH: QVQLVESGPGQVKPSQTLSLTCAISGDSVSSNSAAWNWIRQSPSRGLEWLGRTYYRSKWYNDYAVSVKSRITINPDTSKNQFSLQLNSVTPEDTAVYYCARRDYSSGGFDYWGQGTTVTVSS
VL: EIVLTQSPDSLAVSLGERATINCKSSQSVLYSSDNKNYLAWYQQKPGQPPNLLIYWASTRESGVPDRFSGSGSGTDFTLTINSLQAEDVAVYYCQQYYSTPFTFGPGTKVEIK
cytotoxicity EC50, NCI-H838 cells, pan T-cells 5:1 E:T, 48 hours [1]: 0.027 nM

B2: MNC3B193 (bispecific antibody)
scFv: DIQMTQSPSSLSASVGDRVTITCRARQSIGTAIHWYQQKPGKAPKLLIKYASESISGVPSRFSGSGSGTDFTLTISSLQPEDFATYYCQQSGSWPYTFGQGTKLEIKGGSEGKSSGSGSESKSTGGSEVQLVESGGGLVKPGGSLRLSCAASGFTFSRYNMNWVRQAPGKGLEWVSSISTSSNYIYYADSVKGRFTFSRDNAKNSLDLQMSGLRAEDTAIYYCTRGWGPFDYWGQGTLVTVSS
VH: B1 VH
VL: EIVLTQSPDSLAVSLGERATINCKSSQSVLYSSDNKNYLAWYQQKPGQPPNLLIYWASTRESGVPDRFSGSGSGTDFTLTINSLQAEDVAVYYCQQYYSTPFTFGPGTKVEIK
notes: Bipod: MSNB457 Fab x CD3W245 LH scFv-Fc; also called CD3W245 LH containing Bipod
EC50 [2]: 46 nM | AC90 [nM], cytotoxicity, 1:1 E:T, 72 hours [3]: 0.25 nM | Max. Activity, cytotoxicity, 1:1 E:T, 72 hours [3]: 91% | qAC50 [nM], cytotoxicity, 1:1 E:T, 72 hours [3]: 0.1 nM | EC50 (read off the curve) [4]: ~8 nM

B3: MNC3B130 (bispecific antibody)
scFv: B2 scFv
VH: B1 VH
VL: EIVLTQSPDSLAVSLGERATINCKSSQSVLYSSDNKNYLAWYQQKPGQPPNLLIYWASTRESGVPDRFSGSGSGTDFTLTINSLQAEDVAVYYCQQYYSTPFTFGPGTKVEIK
notes: MSNB457 Fab x CD3W245 LH scFv; Fc chain 1 T350V/L351Y/F405A/Y407V, Fc chain 2 T350V/T366L/K392/T394W; also called mrMSLN-MSNB457 x W245LH alternative heterodimerization scaffold
binding result [5]: no binding | cytotoxicity EC50, NCI-H838 cells, pan T-cells 5:1 E:T, 48 hours [1]: 0.15 nM

B4: MSNB124 (antibody, V domains shown)
VH: QVQLQQSGPGLVKPSQTLSLTCAISGDSVSSNSVAWHWIRQSPSRGLEWLGRTYHRSKWYNDYAVSVKSRITINPDTSKNQFSLQLNSVTPEDTAVYYCARQILGALDYWGQGTLVTVSS
VL: DIVMTQTPLSLPVTPGEPASISCRSSQSLQFGNGNYLDWYLQKPGQSPQLLIYLGSNRASGVPDRFSGSGSGTDFTLKISRVEAEDVGVYYCMQVLQIPFTFGPGTKVDIK
notes: mAb
binding result [6]: no binding (tested: 100 nM) | binding result [7]: binds | binding result [8]: no binding | EC50 (read off the curve) [9]: ~0.4 nM | IC50 [10]: 0.0735 µg/mL | Maximum Value (arbitrary units) [10]: 1.46e+07 arbitrary units | Kd [11]: 14 nM | binding result [12]: no binding (tested: 1000 nM) | binding result [13]: binds | binding result [14]: no binding (tested: 100 nM) | binding result [15]: no binding (tested: 100 nM) | binding result [16]: no binding (tested: 1000 nM) | Kd [17]: 6.4 nM

B5: MNC3B192 (bispecific antibody)
chain 1: QSALTQPASVSGSPGQSITISCTGTSSNIGTYKFVSWYQQHPGKAPKVMIYEVSKRPSGVSNRFSGSKSGNTASLTISGLQAEDEADYYCVSYAGSGTLLFGGGTKLTVLGGSEGKSSGSGSESKSTGGSQVQLQQSGPGLVKPSQTLSLTCAISGDSVFNNNAAWSWIRQSPSRGLEWLGRTYYRSKWLYDYAVSVKSRITINPDTSKNQFSLQLNSVTPEDTAVYYCARGYSSSFDYWGQGTLVTVSS
chain 2: B1 VH
chain 3: not shown
EC50 (read off the curve) [18]: ~8 nM

B6: MSLNB569 (antibody, V domains shown)
VH: QVQLQQSGPGLVKPSQTLSLTCAISGDSVSSTRAAWNWIRQSPSRGLEWLGRTYYRSKWYNDYTVSVKSRITINPDTSKNQFSLHLNSVTPEDSAVYFCARGNVGRVDFWGQGTLVTVSS
VL: EIVMTQSPLSLPVTPGEPASISCRSSQSLLHSDGYNYLDWYLQKPGQSPQLLIYLGSNRASGVPDRFSGSGSDTDFTLKISRVEAEDVGVYYCMQGLRTPLTFGPGTKVDIK
notes: mAb; also called MSLNB569.001; MSNB569
binding result [6]: no binding (tested: 100 nM) | Kd [19]: 3.4 nM | IC50 [10]: 0.166 µg/mL | Maximum Value (arbitrary units) [10]: 1.6e+07 arbitrary units | Kd [11]: 5.99 nM | binding result [20]: no binding (tested: 1000 nM) | binding result [12]: no binding (tested: 1000 nM) | Kd [13]: 1.99 nM | binding result [14]: no binding (tested: 100 nM) | Kd [21]: 4.06 nM | binding result [15]: no binding (tested: 100 nM) | binding result [16]: no binding (tested: 1000 nM)

B7: CD3W245-LH-ScFv (scFv)
scFv: B2 scFv
EC50 [22]: 20 to 50 nM | Kd (recombinant CD3): 0.5 to 1 nM
